Measured values taken from US20260159579A1 (Pfizer, published 2026).
Substitutions are numbered along the chain they refer to. Where “and” joins values, the source holds several entries; their conditions need not be identical. Identical values can stand only once.

T1: Mouse Fc-human GDF15 (Mu IgG1Fc_Fxa_Hu GDF15) (human)
T1 construct: Whole entry is the fusion: mouse IgG1 Fc, FXa site and linker, mature human GDF15; described as dimeric; also called Murine dimeric IgG1 Fc-human GDF-15 with FXa cleavage site; control human GDF15
T1 chain: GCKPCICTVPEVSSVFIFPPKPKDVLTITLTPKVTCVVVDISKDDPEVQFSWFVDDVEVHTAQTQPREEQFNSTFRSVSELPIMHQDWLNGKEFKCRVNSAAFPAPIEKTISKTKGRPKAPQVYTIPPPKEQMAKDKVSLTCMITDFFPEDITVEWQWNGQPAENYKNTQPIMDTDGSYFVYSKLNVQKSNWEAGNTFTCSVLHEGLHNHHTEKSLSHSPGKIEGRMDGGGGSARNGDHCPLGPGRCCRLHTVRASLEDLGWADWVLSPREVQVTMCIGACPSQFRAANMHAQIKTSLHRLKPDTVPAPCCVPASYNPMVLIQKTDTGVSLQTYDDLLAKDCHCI

B1: GDF15_0297 (antibody, mouse IgG1, kappa, V domains shown)
VH: QVQLQQPGAELVKPGASVKMSCKASGYPFEGWYIHWVKQRPGQGLEWMGWNNPRTGLTNHAQKFQGKVTMTRDTSSSTAYMQLSSLTSEDSAVYYCARGVGADAAFDIWGQGTTLTVSS
VL: DIVMTQSPSSLSVSAGEKVTMSCRSSQSLLWKHGYNYLDWYQQKPGQPPKLLIYLDRNRAHGVPDRFTGSGSGTDFTLTISSVQAEDLAVYYCMQSFETPITFGGGTKLEIKR
notes: Tested in bivalent format; also called GDF15_297
B2: GDF15_0301 (antibody, mouse IgG1, kappa, V domains shown)
VH: B1 VH with V68A, M70L, R72V
VL: B1 VL with M4L
notes: Tested in bivalent format; also called GDF15_301; mAB2
B3: GDF15_014 (antibody, human IgG1, kappa, V domains shown)
VH: QVQLVQSGAEVKKPGSSVKVSCKASGYTFSSYNIDWVRQAPGQGLEWMGQINPINGLAFYNQKFQGRVTITADESTSTAYMELSSLRSEDTAVYYCAREAITTVGAMDYWGQGTLVTVSS
VL: EIVLTQSPATLSLSPGERATLSCRTSQNVHNYLAWYQQKPGQAPRLLIYDASNRATGIPARFSGSGSGTDFTLTISSLEPEDFAVYYCQQFWSDPYTFGQGTKVEIKR
notes: Tested in bivalent format
B4: GDF15_020 (antibody, human IgG1, kappa, V domains shown)
VH: B3 VH with S31D, I34M, I54N, F59N
VL: B3 VL with T25A, V29L, N31S, N53T, T56D
notes: Tested in bivalent format
B5: GDF15_004 (antibody, human IgG1, kappa, V domains shown)
VH: B3 VH with I54N, F59N, N61A, V104I
VL: B3 VL with Q27E, N28S, N31S, N53T, T56D
notes: Tested in bivalent format
B6: GDF15_022 (antibody, human IgG1, kappa, V domains shown)
VH: B3 VH with S31D, I54N, A58I, Y60F, A100V
VL: B3 VL with N28S, N31S, S52K, N53T, T56D, W92S
notes: Tested in bivalent format
B7: GDF15_010 (antibody, human IgG1, kappa, V domains shown)
VH: B3 VH with S31D, Q50G, I54N, Y60F
VL: B3 VL with N28S, V29L, N31S, S93N, Y96W
notes: Tested in bivalent format
B8: GDF15_015 (antibody, human IgG1, kappa, V domains shown)
VH: B3 VH with S31D, I34M, I54N, M107T
VL: B3 VL with N31S, R54L, T56D, W92S, S93N, Y96W
notes: Tested in bivalent format
B9: GDF15_013 (antibody, human IgG1, kappa, V domains shown)
VH: B3 VH with S31D, I34M, Q50G, I54N
VL: B3 VL with Q27E, N28S, N31S, S93N, D94W, Y96W
notes: Tested in bivalent format
B10: GDF15_017 (antibody, human IgG1, kappa, V domains shown)
VH: B3 VH with S30T, S31D, I54N, T91N
VL: B3 VL with N28S, N31S, S52K, N53T, W92S
notes: Tested in bivalent format
B11: GDF15_021 (antibody, human IgG1, kappa, V domains shown)
VH: B3 VH with Q50G, A58I, Y60F, Y109H
VL: B3 VL with Q27E, N31S, R54L, T56D
notes: Tested in bivalent format
B12: GDF15_003 (antibody, human IgG1, kappa, V domains shown)
VH: B3 VH with S30T, I54N, A100Q
VL: B3 VL with T25A, N28S, V29L, H30S, N31S, S52K, T56D, W92S
notes: Tested in bivalent format
B13: GDF15_0470 (antibody, human IgG1, kappa, V domains shown)
VH: QVQLVQSGAEVKKPGASVKVSCKASGYPFEGWYIHWVRQAPGQGLEWMGWNNPRTGLTNHAQKFQGRVTMTRDTSISTAYMELSRLRSDDTAVYYCARGVGADAAFDIWGQGTMVTVSS
VL: EIVLTQSPATLSLSPGERATLSCRSSQSLLWKHGYNYLDWYQQKPGQAPRLLIYLDRNRAHGIPARFSGSGSGTDFTLTISSLEPEDFAVYYCMQSFETPITFGQGTKVEIKR
notes: Tested in bivalent format; also called GDF15-470

Target: T1, Mouse Fc-human GDF15 (Mu IgG1Fc_Fxa_Hu …)
Assay: SPR BIAcore T200, 37C; Fc-GDF15 captured, IgG as analyte
Protocol: (§1) Mouse Fc-human GDF15 (Mu IgG1Fc_Fxa_Hu GDF15; SEQ ID NO:2), Mouse Fc-mouse GDF15 (Mu IgG1Fc_Fxa_Mu GDF15; SEQ ID NO:5) and Mouse Fc-cynomolgus monkey GDF15 (Mu IgG1Fc_Fxa_Cyno GDF15; SEQ ID NO:4) were captured onto three different flow cells of a CM4 sensorchip (catalogue number BR100534, GE Healthcare) surface using the Mouse Antibody Capture Kit (BR100838, GE Healthcare) according to the manufacturer's protocol. The running and sample bufferwas 10 mM HEPES pH 7.4, 0.15M NaCl, 3 mM EDTA, 0.05% P-20 (HBS-EP+). The final capture levels of Mu IgG1Fc_Fxa_Hu GDF15, Mu IgG1Fc_Fxa_Mu GDF15 and Mu IgG1Fc_Fxa_Cyno GDF15 were 40 resonance units (RU), 32 RU and 25 RU respectively. Flow cell 1 was used as a reference flow cell. […] The dissociation was monitored for 2.8 hours and the surface was regenerated with 10 mM Glycine pH 1.7. Binding affinities and rate constants were determined for murine and cynomolgus monkey GDF15 by fitting the resulting sensorgram data to a 1:1 Langmuir model in BIAcore T200 Evaluation software version 2.0 (GE Healthcare).
(§2) Additionally, the binding of clone GDF15_001 to cynomolgus monkey and mouse GDF15 was measured using above mentioned BIAcore assay (Table 7).

Row | Kd | T½ min | koff | kon | Binder
1 | < 0.01 nM | 17.7 h and 14.9 h | 1.09e-05 s⁻¹ and 1.29e-05 s⁻¹ | 5.54e+06 M⁻¹ s⁻¹ and 5.5e+06 M⁻¹ s⁻¹ | B1
2 | < 0.01 nM | – | – | 3.36e+06 M⁻¹ s⁻¹ and 5.58e+06 M⁻¹ s⁻¹ and 5.22e+06 M⁻¹ s⁻¹ | B2
3 | < 0.01 nM | 10.7 h and 13 h | 1.79e-05 s⁻¹ and 1.48e-05 s⁻¹ | 1.88e+06 M⁻¹ s⁻¹ and 1.9e+06 M⁻¹ s⁻¹ | B3
4 | 0.0974 nM and 0.165 nM | 2.03 h and 1.7 h | 9.46e-05 s⁻¹ and 0.000113 s⁻¹ | 972000 M⁻¹ s⁻¹ and 686000 M⁻¹ s⁻¹ | B4
5 | 0.0322 nM and 0.0419 nM | 2.7 h and 2.35 h | 7.14e-05 s⁻¹ and 8.2e-05 s⁻¹ | 2.22e+06 M⁻¹ s⁻¹ and 1.96e+06 M⁻¹ s⁻¹ | B5
6 | 0.0132 nM and 0.0179 nM | 10.9 h and 13.3 h | 1.77e-05 s⁻¹ and 1.45e-05 s⁻¹ | 1.34e+06 M⁻¹ s⁻¹ and 813000 M⁻¹ s⁻¹ | B6
7 | 0.0113 nM and 0.0201 nM | 13.1 h and 10.8 h | 1.47e-05 s⁻¹ and 1.78e-05 s⁻¹ | 1.31e+06 M⁻¹ s⁻¹ and 885000 M⁻¹ s⁻¹ | B7
8 | 0.0594 nM and 0.0573 nM | 1.94 h and 1.86 h | 9.93e-05 s⁻¹ and 0.000104 s⁻¹ | 1.67e+06 M⁻¹ s⁻¹ and 1.81e+06 M⁻¹ s⁻¹ | B8
9 | 0.0275 nM and 0.0103 nM | 2.89 h and 2.56 h | 6.66e-05 s⁻¹ and 7.51e-05 s⁻¹ | – | B9
10 | 0.0267 nM and 0.043 nM | 2.35 h and 2.22 h | 8.18e-05 s⁻¹ and 8.66e-05 s⁻¹ | 1.9e+06 M⁻¹ s⁻¹ and 3.24e+06 M⁻¹ s⁻¹ | B10
11 | 0.142 nM and 0.165 nM | 0.661 h and 0.547 h | 0.000291 s⁻¹ and 0.000352 s⁻¹ | 2.05e+06 M⁻¹ s⁻¹ and 2.14e+06 M⁻¹ s⁻¹ | B11
12 | 0.0274 nM and 0.0268 nM | 2.67 h and 2.1 h | 7.22e-05 s⁻¹ and 9.19e-05 s⁻¹ | 2.64e+06 M⁻¹ s⁻¹ and 3.43e+06 M⁻¹ s⁻¹ | B12
13 | < 0.01 nM | 3.7 h and 4.47 h | 5.21e-05 s⁻¹ and 4.3e-05 s⁻¹ | 1.2e+07 M⁻¹ s⁻¹ and 1.3e+07 M⁻¹ s⁻¹ | B13

Target: T1, Mouse Fc-human GDF15 (Mu IgG1Fc_Fxa_Hu …)
Assay: SPR BIAcore T200, 37C; Fc-GDF15 captured, IgG as analyte; average of runs
Protocol: as §1, §2

Row | Kd [nM] | koff [s⁻¹] | kon [M⁻¹ s⁻¹] | Binder
14 | < 0.01 | 1.19e-05 | 5.52e+06 | B1
15 | < 0.01 | 6.97e-06 | 4.72e+06 | B2
16 | < 0.01 | 1.64e-05 | 1.89e+06 | B3
17 | 0.131 | 0.000104 | 829000 | B4
18 | 0.037 | 7.67e-05 | 2.09e+06 | B5
19 | 0.0156 | 1.61e-05 | 1.08e+06 | B6
20 | 0.0157 | 1.63e-05 | 1.1e+06 | B7
21 | 0.0584 | 0.000101 | 1.74e+06 | B8
22 | 0.018 | 7.08e-05 | 4.86e+06 | B9
23 | 0.0349 | 8.42e-05 | 2.57e+06 | B10
24 | 0.153 | 0.000322 | 2.09e+06 | B11
25 | 0.0271 | 8.2e-05 | 3.03e+06 | B12
26 | < 0.01 | 4.76e-05 | 1.25e+07 | B13

Target: T1, Mouse Fc-human GDF15 (Mu IgG1Fc_Fxa_Hu …)
Assay: SPR BIAcore T200; summary sentence for the clones of Table 6
Protocol: as §1, §2

Row | Kd [nM] | Binder
27 | < 0.15 | B1
28 | < 0.15 | B2
29 | < 0.15 | B4
30 | < 0.15 | B6
31 | < 0.15 | B11
32 | < 0.15 | B13
